The values that follow come from US20030152959, “Method of using estrogen-related receptor alpha (ERRalpha) status to determine prognosis, treatment strategy and predisposition to breast cancer, and method of using ERRalpha as a therapeutic target for the treatment of breast cancer” (published 2003).

Data set [1] has as its target T1, ERRα1 (estrogen-related receptor alpha 1, NR3B1) (Homo sapiens, UniProt P11474 P11474:1-423).
T1 sequence: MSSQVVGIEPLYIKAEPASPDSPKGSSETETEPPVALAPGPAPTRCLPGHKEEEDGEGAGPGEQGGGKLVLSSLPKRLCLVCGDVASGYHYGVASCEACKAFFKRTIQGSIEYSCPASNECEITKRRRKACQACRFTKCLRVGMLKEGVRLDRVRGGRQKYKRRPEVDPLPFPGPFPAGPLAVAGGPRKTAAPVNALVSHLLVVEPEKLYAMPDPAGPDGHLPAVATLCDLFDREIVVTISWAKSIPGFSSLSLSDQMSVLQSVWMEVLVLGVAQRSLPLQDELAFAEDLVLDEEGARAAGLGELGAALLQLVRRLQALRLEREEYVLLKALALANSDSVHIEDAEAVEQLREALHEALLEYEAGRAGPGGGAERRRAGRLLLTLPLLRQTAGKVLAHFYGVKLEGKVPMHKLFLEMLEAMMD
The data set is described as follows: competition; competition EMSA, COS extract. The note with it: tags: COS / COS-M6 whole-cell extract, pcDNA3.1-hERRα1 or pRSV-hERRα1.

Data set [2] addresses T1, ERRα1 (estrogen-related receptor alpha …). The data set is described as follows: cell_activity; HeLa, 3xERE-TK-luc reporter. As to conditions: tags:

B1: aromatase site (dsDNA)
DNA 1: CCTGAGACTCTACCAAGGTCAGAAATGCTGCAA
DNA 2: TTGCAGCATTTCTGACCTTGGTAGAGTCTCAGG
B1: the binding signal in data set [1] turned out to be 0.17 RBA vs reference ERRE.

B2: ERα promoter site (dsDNA)
DNA 1: ATGTTTGGTATGAAAAGGTCACATTTTATATTC
DNA 2: GAATATAAAATGTGACCTTTTCATACCAAACAT
Consider B2, for which the binding signal in data set [1] stood at 0.11 RBA vs reference ERRE.

B3: Prolactin site 2 (dsDNA)
DNA 1: CAAATTTGAAACTAAAGGTCACAGGCTGCTTTA
DNA 2: TAAAGCAGCCTGTGACCTTTAGTTTCAAATTTG
B3 returned a binding signal in data set [1] of 0.33 RBA vs reference ERRE.

B4: BRCA1 site (dsDNA)
DNA 1: GTAATTGCTGTACGAAGGTCAGAATCGCTACCT
DNA 2: AGGTAGCGATTCTGACCTTCGTACAGCAATTAC
The molecule B4 gave a binding signal in data set [1] of 0.17 RBA vs reference ERRE.

B5: IGF1R site (dsDNA)
DNA 1: GCTCCGGCTCGCTGAAGGTCACAGCCGAGGCGA
DNA 2: TCGCCTCGGCTGTGACCTTCAGCGAGCCGGAGC
Consider B5, for which the binding signal in data set [1] came out at 0.36 RBA vs reference ERRE.

B6: IGF2 site 2 (dsDNA)
DNA 1: CTGTCGGCAGGAACAAGGTCACCCCTTGGCGTT
DNA 2: AACGCCAAGGGGTGACCTTGTTCCTGCCGACAG
In turn, B6 returned a binding signal in data set [1] of 0.25 RBA vs reference ERRE.

B7: hMDM2 site (dsDNA)
DNA 1: GGGAGTTCAGGGTAAAGGTCACGGGGCCGGGGC
DNA 2: GCCCCGGCCCCGTGACCTTTACCCTGAACTCCC
B7 displayed a binding signal in data set [1] of 0.35 RBA vs reference ERRE.

B8: Prolactin site 3 (dsDNA)
DNA 1: CCTCAGAGTGGCTCAGGGTCAGAGAAGGTAGAG
DNA 2: CTCTACCTTCTCTGACCCTGAGCCACTCTGAGG
As to B8, in data set [1], the binding signal came out at 0.07 RBA vs reference ERRE.

B9: PgR site 1 (dsDNA)
DNA 1: AAAATTGTTTTGTCTAGGTCATTTGCATTTTCA
DNA 2: TGAAAATGCAAATGACCTAGACAAAACAATTTT
B9: the binding signal in data set [1] was determined as 0.14 RBA vs reference ERRE.

B10: pS2 site 1 (dsDNA)
DNA 1: TCCCTTCCCCCTGCAAGGTCACGGTGGCCACCC
DNA 2: GGGTGGCCACCGTGACCTTGCAGGGGGAAGGGA
In data set [1], B10 displayed a binding signal of 0.49 RBA vs reference ERRE.

B11: IGF2 site 3 (dsDNA)
DNA 1: GGTGGACGCTGCTGAAGGTGAGCGAGACCCCGG
DNA 2: CCGGGGTCTCGCTCACCTTCAGCAGCGTCCACC
As to B11, in data set [1], the binding signal is 0.06 RBA vs reference ERRE.

B12: elk1 site (dsDNA)
DNA 1: CTCCCATCTCACTTAAGGTCAAAGCCAGGGTCC
DNA 2: GGACCCTGGCTTTGACCTTAAGTGAGATGGGAG
In turn, B12 came in with a binding signal in data set [1] of 0.22 RBA vs reference ERRE.

B13: Consensus palindromic ERE (dsDNA)
DNA 1: TAAGCTTAGGTCACAGTGACCTAAGCTTA
DNA 2: TAAGCTTAGGTCACTGTGACCTAAGCTTA
B13: the activity in data set [2] amounted to 2.5 fold activation.

B14: PgR site 2 (dsDNA)
DNA 1: TCCTTGCTAAACCCAAGGTCATAAATCTTTTCT
DNA 2: AGAAAAGATTTATGACCTTGGGTTTAGCAAGGA
In turn, B14 displayed a binding signal in data set [1] of 0.91 RBA vs reference ERRE.

B15: EGF site (dsDNA)
DNA 1: CAAATAATGGGCTGAAGGTGAACTATCTTTACT
DNA 2: AGTAAAGATAGTTCACCTTCAGCCCATTATTTG
Molecule B15 displayed a binding signal in data set [1] of 0.14 RBA vs reference ERRE.

B16: Prolactin site 1 (dsDNA)
DNA 1: TGTCCATTTTCTTCTAGGTCAACCCCAATGGTA
DNA 2: TACCATTGGGGTTGACCTAGAAGAAAATGGACA
In data set [1], B16 returned a binding signal of 0.06 RBA vs reference ERRE.

B17: BRCA2 site (dsDNA)
DNA 1: AGAACATCCCTTTTAAGGTCAGAACAAAGGTAT
DNA 2: ATACCTTTGTTCTGACCTTAAAAGGGATGTTCT
Take B17: in data set [1], the binding signal was 0.08 RBA vs reference ERRE.

B18: Cathepsin D site (dsDNA)
DNA 1: TGGCATATTGGGTGAAGGTCAAGGGAGTGGCTT
DNA 2: AAGCCACTCCCTTGACCTTCACCCAATATGCCA
B18 showed a binding signal in data set [1] of 0.49 RBA vs reference ERRE.

B19: cyclin D1 site (dsDNA)
DNA 1: GCGAGGAAAGCGTGAAGGTGATTTCAGTTAATT
DNA 2: AATTAACTGAAATCACCTTCACGCTTTCCTCGC
Turning to B19, the binding signal in data set [1] amounted to 0.07 RBA vs reference ERRE.

B20: PgR site 3 (dsDNA)
DNA 1: TCCTAAGGACTGTCAAGGTCATCAAATACAAGG
DNA 2: CCTTGTATTTGATGACCTTGACAGTCCTTAGGA
B20 showed a binding signal in data set [1] of 1.45 RBA vs reference ERRE.

B21: ERβ promoter site (dsDNA)
DNA 1: GGTGCTCCCACTTAGAGGTCACGCGCGGCGTCG
DNA 2: CGACGCCGCGCGTGACCTCTAAGTGGGAGCACC
In the case of B21, the binding signal in data set [1] amounted to 0.54 RBA vs reference ERRE.

B22: ErbB2 ERRE (dsDNA)
DNA 1: AAAGGAACTTTCCCAAGGTCACAGAGCTGAGCT
DNA 2: AGCTCAGCTCTGTGACCTTGGGAAAGTTCCTTT
B22 displayed a binding signal in data set [1] of 1.01 RBA vs reference ERRE.

B23: pS2 site 2 (dsDNA)
DNA 1: GTAGGACCTGGATTAAGGTCAGGTTGGAGGAGA
DNA 2: TCTCCTCCAACCTGACCTTAATCCAGGTCCTAC
Take B23: the binding signal in data set [1] is 0.12 RBA vs reference ERRE.
